# Experimental data: patent US20220363757A1 (SYMPHOGEN A S, published 2022)
# T1: human LAG-3 domain 1-2 Fc fusion, point mutation #50 P106A (human, UniProt P18627 23-266)
# T1 construct: not shown: human IgG1 Fc, AA P101-K330
# T1 sequence: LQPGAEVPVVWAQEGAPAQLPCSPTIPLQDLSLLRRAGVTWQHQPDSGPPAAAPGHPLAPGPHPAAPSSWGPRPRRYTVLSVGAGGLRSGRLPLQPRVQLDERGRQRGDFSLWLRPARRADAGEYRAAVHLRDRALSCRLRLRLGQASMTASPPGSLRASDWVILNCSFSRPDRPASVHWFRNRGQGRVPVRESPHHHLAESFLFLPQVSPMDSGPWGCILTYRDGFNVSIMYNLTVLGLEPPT
# T2: human LAG-3 domain 1-2 Fc fusion, point mutation #21 A74S (human, UniProt P18627 23-266)
# T2 construct: not shown: human IgG1 Fc, AA P101-K330
# T2 sequence: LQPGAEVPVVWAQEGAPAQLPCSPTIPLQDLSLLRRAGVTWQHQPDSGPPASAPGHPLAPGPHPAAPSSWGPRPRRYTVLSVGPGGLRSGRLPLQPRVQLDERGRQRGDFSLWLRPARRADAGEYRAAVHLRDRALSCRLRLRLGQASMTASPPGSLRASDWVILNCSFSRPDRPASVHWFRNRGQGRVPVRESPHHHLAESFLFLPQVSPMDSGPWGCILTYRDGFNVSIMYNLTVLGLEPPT
# T3: human LAG-3 domain 1-2 Fc fusion, point mutation #57 R113A (human, UniProt P18627 23-266)
# T3 construct: not shown: human IgG1 Fc, AA P101-K330
# T3 sequence: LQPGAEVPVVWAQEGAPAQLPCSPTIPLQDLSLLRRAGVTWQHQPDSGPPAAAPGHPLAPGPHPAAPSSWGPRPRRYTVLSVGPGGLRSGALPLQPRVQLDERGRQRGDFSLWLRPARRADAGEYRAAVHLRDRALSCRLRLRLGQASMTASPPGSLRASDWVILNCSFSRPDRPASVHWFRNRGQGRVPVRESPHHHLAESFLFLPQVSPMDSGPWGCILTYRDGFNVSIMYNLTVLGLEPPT
# T4: human LAG-3 domain 1-2 Fc fusion, point mutation #79 S159A (human, UniProt P18627 23-266)
# T4 construct: not shown: human IgG1 Fc, AA P101-K330
# T4 sequence: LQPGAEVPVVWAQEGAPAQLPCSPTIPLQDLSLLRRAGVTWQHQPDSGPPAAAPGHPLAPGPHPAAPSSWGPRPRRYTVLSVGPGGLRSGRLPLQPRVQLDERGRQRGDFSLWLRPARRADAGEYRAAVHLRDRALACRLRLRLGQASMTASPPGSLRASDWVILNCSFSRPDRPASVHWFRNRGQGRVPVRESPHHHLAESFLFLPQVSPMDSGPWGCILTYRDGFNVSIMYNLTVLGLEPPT
# T5: human LAG-3 domain 1-2 Fc fusion, point mutation #33 P86A (human, UniProt P18627 23-266)
# T5 construct: not shown: human IgG1 Fc, AA P101-K330
# T5 sequence: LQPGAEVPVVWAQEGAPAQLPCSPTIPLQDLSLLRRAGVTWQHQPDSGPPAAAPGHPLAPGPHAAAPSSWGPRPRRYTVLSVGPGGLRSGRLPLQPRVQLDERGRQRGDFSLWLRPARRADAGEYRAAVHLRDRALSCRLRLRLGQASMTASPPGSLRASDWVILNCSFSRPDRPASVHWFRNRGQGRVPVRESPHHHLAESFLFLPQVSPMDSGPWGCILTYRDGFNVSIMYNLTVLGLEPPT
# T6: human LAG-3 domain 1-2 Fc fusion, point mutation #4 S45A (human, UniProt P18627 23-266)
# T6 construct: not shown: human IgG1 Fc, AA P101-K330
# T6 sequence: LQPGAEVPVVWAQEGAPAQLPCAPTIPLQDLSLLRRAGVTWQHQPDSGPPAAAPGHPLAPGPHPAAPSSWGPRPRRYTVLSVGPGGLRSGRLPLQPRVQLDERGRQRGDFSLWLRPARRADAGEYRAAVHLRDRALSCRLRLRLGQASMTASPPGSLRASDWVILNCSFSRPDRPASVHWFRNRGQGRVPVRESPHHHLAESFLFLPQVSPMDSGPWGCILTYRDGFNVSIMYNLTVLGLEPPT
# T7: human LAG-3 domain 1-2 Fc fusion, point mutation #59 Q117A (human, UniProt P18627 23-266)
# T7 construct: not shown: human IgG1 Fc, AA P101-K330
# T7 sequence: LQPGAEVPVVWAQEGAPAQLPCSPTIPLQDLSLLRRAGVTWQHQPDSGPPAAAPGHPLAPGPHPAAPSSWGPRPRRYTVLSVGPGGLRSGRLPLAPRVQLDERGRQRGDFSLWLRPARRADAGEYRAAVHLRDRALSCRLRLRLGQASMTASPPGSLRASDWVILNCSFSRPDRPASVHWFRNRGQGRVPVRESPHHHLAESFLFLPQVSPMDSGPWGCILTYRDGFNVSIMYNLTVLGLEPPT
# T8: human LAG-3 domain 1-2 Fc fusion, point mutation #47 T100A (human, UniProt P18627 23-266)
# T8 construct: not shown: human IgG1 Fc, AA P101-K330
# T8 sequence: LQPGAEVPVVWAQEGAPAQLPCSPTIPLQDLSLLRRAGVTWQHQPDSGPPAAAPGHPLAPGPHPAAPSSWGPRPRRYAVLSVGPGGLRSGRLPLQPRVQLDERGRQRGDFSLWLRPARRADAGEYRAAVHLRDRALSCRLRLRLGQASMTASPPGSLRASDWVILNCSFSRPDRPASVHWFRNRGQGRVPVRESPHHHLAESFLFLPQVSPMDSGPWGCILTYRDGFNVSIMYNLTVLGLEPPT
# T9: human LAG-3 domain 1-2 Fc fusion, point mutation #25 H78A (human, UniProt P18627 23-266)
# T9 construct: not shown: human IgG1 Fc, AA P101-K330
# T9 sequence: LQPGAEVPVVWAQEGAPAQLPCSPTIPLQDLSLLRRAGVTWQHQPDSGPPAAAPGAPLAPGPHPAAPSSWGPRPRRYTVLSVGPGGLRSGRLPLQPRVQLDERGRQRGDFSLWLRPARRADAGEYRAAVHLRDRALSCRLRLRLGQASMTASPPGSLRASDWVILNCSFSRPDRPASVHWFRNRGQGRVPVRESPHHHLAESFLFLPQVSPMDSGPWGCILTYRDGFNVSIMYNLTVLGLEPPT
# Assays:
# Experiment in all cases: SPR, Fab over captured mutant LAG-3-Fc;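 further: fc fusion variants captured on anti-human IgG Fc sensor, Fab injected with association then dissociation phases, KD obtained from Langmuir one-to-one fit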
# [1] = biological target: T1, human LAG-3 domain 1-2 Fc fusion, point …
# [2] = biological target: T2, human LAG-3 domain 1-2 Fc fusion, point …
# [3] = biological target: T3, human LAG-3 domain 1-2 Fc fusion, point …
# [4] = biological target: T4, human LAG-3 domain 1-2 Fc fusion, point …
# [5] = biological target: T5, human LAG-3 domain 1-2 Fc fusion, point …
# [6] = biological target: T6, human LAG-3 domain 1-2 Fc fusion, point …
# [7] = biological target: T7, human LAG-3 domain 1-2 Fc fusion, point …
# [8] = biological target: T8, human LAG-3 domain 1-2 Fc fusion, point …
# [9] = biological target: T9, human LAG-3 domain 1-2 Fc fusion, point …
KD mutant/KD wild type [1],KD mutant/KD wild type [2],KD mutant/KD wild type [3],KD mutant/KD wild type [4],KD mutant/KD wild type [5],KD mutant/KD wild type [6],KD mutant/KD wild type [7],KD mutant/KD wild type [8],KD mutant/KD wild type [9],binding result [1],binding result [8],Binder
2.7 fold,1 fold,0.6 fold,0.7 fold,6.1 fold,1.7 fold,0.8 fold,3.9 fold,0.9 fold,,,"Fab fragment of antibody 15532 (Fab, V domains shown, not shown: a dimerising Fc or GST, monomeric Fab made by GingisKHAN digestion of the IgG1) VH: QVQLQQWGAGLLRPSETLSLTCAVYGESFSGYYWNWIRQPPGKGLEWIGEINHSGSTNYNPSLKSRVTISVDTSKTQFSLKLSSVTAADTAVYYCARGWDLLDWNDYWNEYWGQGTLVTVSS VL: EIVLTQSPATLSLSPGERATLSCRASQSVSSYLAWYQQKPGQAPRLLIYDASNRATGIPARFSGSGSGTDFTLTISSLEPEDFAVYYCQQRSNWPLTFGGGTKVEIKR"
4.6 fold,0.8 fold,3.3 fold,0.7 fold,0.7 fold,0.7 fold,0.7 fold,0.6 fold,0.7 fold,,,"Fab fragment of antibody 15011 (Fab, V domains shown, not shown: a dimerising Fc or GST, monomeric Fab made by GingisKHAN digestion of the IgG1) VH: EVQLLESGGGLVQPGGSLRLSCAASGFDFRSYAMMWVRQAPGKGLEWVGGINGEVGGSNTYYAPAVKGRATISRDNSKNTLYLQMNSLRAEDTAVYYCVKGAGACGICNDDIDAWGQGTLVTVSS VL: SYELTQDPAVSVALGQTVRITCSGAGSYAGSYYYGWHQQKPGQAPVTVIYDNDKRPSNIPDRFSGSSSGNTASLTITGAQAEDEADYYCGSTNDNDDGGLFGSGTKVTVLG"
,0.8 fold,0.9 fold,0.9 fold,0.6 fold,0.4 fold,0.4 fold,,0.4 fold,no binding (tested: 300 nM),no binding (tested: 300 nM),"Fab fragment of antibody 15431 (Fab, V domains shown, not shown: a dimerising Fc or GST, monomeric Fab made by GingisKHAN digestion of the IgG1) VH: QVQLQQSGPGLVKPSQTLSLTCAISGDSVSSNSAAWNWIRQSPSRGLEWLGRTYYRSKWYNDYAVSVKSRITINPDTSKNQFSLQLNSVTPEDTAVYYCARDDDWNDFDYWGQGTLVTVSS VL: EIVLTQSPATLSLSPGERATLSCRASQSVSSYLAWYQQKPGQAPRLLIYDASNRATGIPARFSGSGSGTDFTLTISSLEPEDFAVYYCQQRSNWPLTFGGGTKVEIKR"
,0.7 fold,0.7 fold,0.3 fold,0.7 fold,0.6 fold,0.5 fold,,0.5 fold,no binding (tested: 300 nM),no binding (tested: 300 nM),"Fab fragment of antibody 15572 (Fab, V domains shown, not shown: a dimerising Fc or GST, monomeric Fab made by GingisKHAN digestion of the IgG1) VH: QLQLQESGPGLVKPSETLSLTCTVSGDSISSSSYYWGWIRQPPGKGLEWIGSIFYSGNTYYNPSLKSRVTISVDTSKNQFSLKLSSVTAADTAVYYCAREDDFLTDYYGAFDIWGQGTMVTVSS VL: not shown"
